Source: paper PMC6328613

How the values were obtained:
MBP-Scyl1 [1] = biological target: MBP-Scyl1 (UniProt Q96KG9); assay: SPR; ProteOn XPR36, GLH chip; cross-linked anti-MBP antibody, MBP-Scyl1 captured (3000 RU), GST-GORAB variants as analyte at 30 nM, 100 µL/min, 120 s association, 600 s dissociation; 150 mM NaCl, 10 mM HEPES, 0.02% Tween-20, pH 7.4
MBP-Scyl1 [2] = biological target: MBP-Scyl1 (UniProt Q96KG9)

Chain of UniProt Q96KG9 (Q96KG9 whole entry): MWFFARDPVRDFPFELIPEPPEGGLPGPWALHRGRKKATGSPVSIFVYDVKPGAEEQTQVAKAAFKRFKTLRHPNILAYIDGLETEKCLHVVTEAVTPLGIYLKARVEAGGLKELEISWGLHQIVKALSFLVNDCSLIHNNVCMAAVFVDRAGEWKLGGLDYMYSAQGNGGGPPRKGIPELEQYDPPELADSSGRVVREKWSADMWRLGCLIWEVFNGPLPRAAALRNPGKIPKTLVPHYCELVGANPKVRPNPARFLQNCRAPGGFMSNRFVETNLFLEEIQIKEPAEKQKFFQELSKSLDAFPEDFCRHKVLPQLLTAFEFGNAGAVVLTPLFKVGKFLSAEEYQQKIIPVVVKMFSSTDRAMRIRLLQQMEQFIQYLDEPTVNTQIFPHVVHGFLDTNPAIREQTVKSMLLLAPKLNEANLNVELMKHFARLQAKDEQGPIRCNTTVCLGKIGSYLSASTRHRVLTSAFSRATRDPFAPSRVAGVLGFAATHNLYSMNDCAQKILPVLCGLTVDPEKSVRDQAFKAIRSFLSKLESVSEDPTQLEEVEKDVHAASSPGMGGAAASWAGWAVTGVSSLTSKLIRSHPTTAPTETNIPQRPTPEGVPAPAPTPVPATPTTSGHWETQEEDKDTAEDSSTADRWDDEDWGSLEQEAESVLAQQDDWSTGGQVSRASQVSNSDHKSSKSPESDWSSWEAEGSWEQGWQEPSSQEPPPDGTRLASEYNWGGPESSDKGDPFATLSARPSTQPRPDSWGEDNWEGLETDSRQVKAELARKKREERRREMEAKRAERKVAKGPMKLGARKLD

Row | Kd (MBP-Scyl1 [1]) | recruitment of coatomer (δ-COP, ε-COP) to liposomes in the presence of myr-Arf1, with MBP-Scyl1 against MBP-IPIP27A (MBP-Scyl1 [2]) | Substance
1 | 0.52 nM | – | GST-GORAB (natural protein)
2 | 0.52 nM | – | GST-GORAB K190del (natural protein)
3 | – | 2 fold | recombinant mouse coatomer isotype γ2ζ1 (from UniProt Q9QXK3 1-871; P61924 1-177; Q5XJY5 1-511; O89079 1-308; O55029 1-905) (complex)
